Non-standard residues stand in square brackets, D forms with d. No end group written: not given here. Dap(CONH2) = NC(=O)NC[C@H](N)C(=O)O; 3Pal = N[C@@H](Cc1cccnc1)C(=O)O; 4Pal = N[C@@H](Cc1ccncc1)C(=O)O; Cha = N[C@@H](CC1CCCCC1)C(=O)O; Cit = NC(=O)NCCC[C@H](N)C(=O)O; αMeP = C[C@@]1(C(=O)O)CCCN1; NMeS = CN[C@@H](CO)C(=O)O; dPip = O=C(O)[C@H]1CCCCN1; hSer = N[C@@H](CCO)C(=O)O; NMeA = CN[C@@H](C)C(=O)O; Nle = CCCC[C@H](N)C(=O)O; Orn = NCCC[C@H](N)C(=O)O; dNMeA = CN[C@H](C)C(=O)O; dAze = O=C(O)[C@H]1CCN1; Aib = CC(C)(N)C(=O)O
B1: [MeAla22, D-Pro24, Cha27,28,36, Aib31]-PYY(22-36) (peptide)
peptide: [NMeA]S[dP]RH[Cha][Cha]NL[Aib]TRQR[Cha]-NH2
modifications: N-terminus assumed
SMILES: CN[C@@H](C)C(=O)N[C@@H](CO)C(=O)N1CCC[C@@H]1C(=O)N[C@@H](CCCNC(=N)N)C(=O)N[C@@H](Cc1c[nH]cn1)C(=O)N[C@@H](CC1CCCCC1)C(=O)N[C@@H](CC1CCCCC1)C(=O)N[C@@H](CC(N)=O)C(=O)N[C@@H](CC(C)C)C(=O)NC(C)(C)C(=O)N[C@H](C(=O)N[C@@H](CCCNC(=N)N)C(=O)N[C@@H](CCC(N)=O)C(=O)N[C@@H](CCCNC(=N)N)C(=O)N[C@@H](CC1CCCCC1)C(N)=O)[C@@H](C)O
B2: Ac-[Glu23, D-Pic(2)24, Cha27,28,36, Aib31]-PYY(23-36) (peptide)
peptide: Ac-E[dPip]RH[Cha][Cha]NL[Aib]TRQR[Cha]-NH2
SMILES: CC(=O)N[C@@H](CCC(=O)O)C(=O)N1CCCC[C@@H]1C(=O)N[C@@H](CCCNC(=N)N)C(=O)N[C@@H](Cc1c[nH]cn1)C(=O)N[C@@H](CC1CCCCC1)C(=O)N[C@@H](CC1CCCCC1)C(=O)N[C@@H](CC(N)=O)C(=O)N[C@@H](CC(C)C)C(=O)NC(C)(C)C(=O)N[C@H](C(=O)N[C@@H](CCCNC(=N)N)C(=O)N[C@@H](CCC(N)=O)C(=O)N[C@@H](CCCNC(=N)N)C(=O)N[C@@H](CC1CCCCC1)C(N)=O)[C@@H](C)O
B3: Ac-[αMePro24, Cha27,28,36, Aib31]-PYY(23-36) (peptide)
peptide: Ac-S[αMeP]RH[Cha][Cha]NL[Aib]TRQR[Cha]-NH2
SMILES: CC(=O)N[C@@H](CO)C(=O)N1CCC[C@@]1(C)C(=O)N[C@@H](CCCNC(=N)N)C(=O)N[C@@H](Cc1c[nH]cn1)C(=O)N[C@@H](CC1CCCCC1)C(=O)N[C@@H](CC1CCCCC1)C(=O)N[C@@H](CC(N)=O)C(=O)N[C@@H](CC(C)C)C(=O)NC(C)(C)C(=O)N[C@H](C(=O)N[C@@H](CCCNC(=N)N)C(=O)N[C@@H](CCC(N)=O)C(=O)N[C@@H](CCCNC(=N)N)C(=O)N[C@@H](CC1CCCCC1)C(N)=O)[C@@H](C)O
B4: Ac-[D-Pro24, Hse26, Cha27,36, Aib28,31]-PYY(23-36) (peptide)
peptide: Ac-S[dP]R[hSer][Cha][Aib]NL[Aib]TRQR[Cha]-NH2
SMILES: CC(=O)N[C@@H](CO)C(=O)N1CCC[C@@H]1C(=O)N[C@@H](CCCNC(=N)N)C(=O)N[C@@H](CCO)C(=O)N[C@@H](CC1CCCCC1)C(=O)NC(C)(C)C(=O)N[C@@H](CC(N)=O)C(=O)N[C@@H](CC(C)C)C(=O)NC(C)(C)C(=O)N[C@H](C(=O)N[C@@H](CCCNC(=N)N)C(=O)N[C@@H](CCC(N)=O)C(=O)N[C@@H](CCCNC(=N)N)C(=O)N[C@@H](CC1CCCCC1)C(N)=O)[C@@H](C)O
B5: Ac-[D-MeAla22, D-Pro24, Cha27,28,36, Aib31]-PYY(22-36) (peptide)
peptide: Ac-[dNMeA]S[dP]RH[Cha][Cha]NL[Aib]TRQR[Cha]-NH2
SMILES: CC(=O)N(C)[C@H](C)C(=O)N[C@@H](CO)C(=O)N1CCC[C@@H]1C(=O)N[C@@H](CCCNC(=N)N)C(=O)N[C@@H](Cc1c[nH]cn1)C(=O)N[C@@H](CC1CCCCC1)C(=O)N[C@@H](CC1CCCCC1)C(=O)N[C@@H](CC(N)=O)C(=O)N[C@@H](CC(C)C)C(=O)NC(C)(C)C(=O)N[C@H](C(=O)N[C@@H](CCCNC(=N)N)C(=O)N[C@@H](CCC(N)=O)C(=O)N[C@@H](CCCNC(=N)N)C(=O)N[C@@H](CC1CCCCC1)C(N)=O)[C@@H](C)O
B6: Ac-[D-Pic(2)24, Cha27,28,36, Aib31]-PYY(23-36) (peptide)
peptide: Ac-S[dPip]RH[Cha][Cha]NL[Aib]TRQR[Cha]-NH2
SMILES: CC(=O)N[C@@H](CO)C(=O)N1CCCC[C@@H]1C(=O)N[C@@H](CCCNC(=N)N)C(=O)N[C@@H](Cc1c[nH]cn1)C(=O)N[C@@H](CC1CCCCC1)C(=O)N[C@@H](CC1CCCCC1)C(=O)N[C@@H](CC(N)=O)C(=O)N[C@@H](CC(C)C)C(=O)NC(C)(C)C(=O)N[C@H](C(=O)N[C@@H](CCCNC(=N)N)C(=O)N[C@@H](CCC(N)=O)C(=O)N[C@@H](CCCNC(=N)N)C(=O)N[C@@H](CC1CCCCC1)C(N)=O)[C@@H](C)O
B7: Ac-[Glu23, D-Pro24, Pya(4)26, Cha27,28,36, Aib31]-PYY(23-36) (peptide)
peptide: Ac-E[dP]R[4Pal][Cha][Cha]NL[Aib]TRQR[Cha]-NH2
SMILES: CC(=O)N[C@@H](CCC(=O)O)C(=O)N1CCC[C@@H]1C(=O)N[C@@H](CCCNC(=N)N)C(=O)N[C@@H](Cc1ccncc1)C(=O)N[C@@H](CC1CCCCC1)C(=O)N[C@@H](CC1CCCCC1)C(=O)N[C@@H](CC(N)=O)C(=O)N[C@@H](CC(C)C)C(=O)NC(C)(C)C(=O)N[C@H](C(=O)N[C@@H](CCCNC(=N)N)C(=O)N[C@@H](CCC(N)=O)C(=O)N[C@@H](CCCNC(=N)N)C(=O)N[C@@H](CC1CCCCC1)C(N)=O)[C@@H](C)O
B8: Ac-[D-Pro24, Orn26, Cha27,28,36, Aib31]-PYY(23-36) (peptide)
peptide: Ac-S[dP]R[Orn][Cha][Cha]NL[Aib]TRQR[Cha]-NH2
SMILES: CC(=O)N[C@@H](CO)C(=O)N1CCC[C@@H]1C(=O)N[C@@H](CCCNC(=N)N)C(=O)N[C@@H](CCCN)C(=O)N[C@@H](CC1CCCCC1)C(=O)N[C@@H](CC1CCCCC1)C(=O)N[C@@H](CC(N)=O)C(=O)N[C@@H](CC(C)C)C(=O)NC(C)(C)C(=O)N[C@H](C(=O)N[C@@H](CCCNC(=N)N)C(=O)N[C@@H](CCC(N)=O)C(=O)N[C@@H](CCCNC(=N)N)C(=O)N[C@@H](CC1CCCCC1)C(N)=O)[C@@H](C)O
B9: Ac-[D-Pro24, Cit26, Cha27,28,36, Aib31]-PYY(23-36) (peptide)
peptide: Ac-S[dP]R[Cit][Cha][Cha]NL[Aib]TRQR[Cha]-NH2
SMILES: CC(=O)N[C@@H](CO)C(=O)N1CCC[C@@H]1C(=O)N[C@@H](CCCNC(=N)N)C(=O)N[C@@H](CCCNC(N)=O)C(=O)N[C@@H](CC1CCCCC1)C(=O)N[C@@H](CC1CCCCC1)C(=O)N[C@@H](CC(N)=O)C(=O)N[C@@H](CC(C)C)C(=O)NC(C)(C)C(=O)N[C@H](C(=O)N[C@@H](CCCNC(=N)N)C(=O)N[C@@H](CCC(N)=O)C(=O)N[C@@H](CCCNC(=N)N)C(=O)N[C@@H](CC1CCCCC1)C(N)=O)[C@@H](C)O
B10: Ac-[D-Aze(2)24, Cha27,28,36, Aib31]-PYY(23-36) (peptide)
peptide: Ac-S[dAze]RH[Cha][Cha]NL[Aib]TRQR[Cha]-NH2
SMILES: CC(=O)N[C@@H](CO)C(=O)N1CC[C@@H]1C(=O)N[C@@H](CCCNC(=N)N)C(=O)N[C@@H](Cc1c[nH]cn1)C(=O)N[C@@H](CC1CCCCC1)C(=O)N[C@@H](CC1CCCCC1)C(=O)N[C@@H](CC(N)=O)C(=O)N[C@@H](CC(C)C)C(=O)NC(C)(C)C(=O)N[C@H](C(=O)N[C@@H](CCCNC(=N)N)C(=O)N[C@@H](CCC(N)=O)C(=O)N[C@@H](CCCNC(=N)N)C(=O)N[C@@H](CC1CCCCC1)C(N)=O)[C@@H](C)O
B11: Ac-[D-Pro24, Nle25, Pya(4)26, Cha27,28,36, Aib31]-PYY(23-36) (peptide)
peptide: Ac-S[dP][Nle][4Pal][Cha][Cha]NL[Aib]TRQR[Cha]-NH2
SMILES: CCCC[C@H](NC(=O)[C@H]1CCCN1C(=O)[C@H](CO)NC(C)=O)C(=O)N[C@@H](Cc1ccncc1)C(=O)N[C@@H](CC1CCCCC1)C(=O)N[C@@H](CC1CCCCC1)C(=O)N[C@@H](CC(N)=O)C(=O)N[C@@H](CC(C)C)C(=O)NC(C)(C)C(=O)N[C@H](C(=O)N[C@@H](CCCNC(=N)N)C(=O)N[C@@H](CCC(N)=O)C(=O)N[C@@H](CCCNC(=N)N)C(=O)N[C@@H](CC1CCCCC1)C(N)=O)[C@@H](C)O
B12: Ac-[D-Pro24, Alb26, Cha27,28,36, Aib31]-PYY(23-36) (peptide)
peptide: Ac-S[dP]R[Dap(CONH2)][Cha][Cha]NL[Aib]TRQR[Cha]-NH2
SMILES: CC(=O)N[C@@H](CO)C(=O)N1CCC[C@@H]1C(=O)N[C@@H](CCCNC(=N)N)C(=O)N[C@@H](CNC(N)=O)C(=O)N[C@@H](CC1CCCCC1)C(=O)N[C@@H](CC1CCCCC1)C(=O)N[C@@H](CC(N)=O)C(=O)N[C@@H](CC(C)C)C(=O)NC(C)(C)C(=O)N[C@H](C(=O)N[C@@H](CCCNC(=N)N)C(=O)N[C@@H](CCC(N)=O)C(=O)N[C@@H](CCCNC(=N)N)C(=O)N[C@@H](CC1CCCCC1)C(N)=O)[C@@H](C)O
B13: Ac-[D-Pro24, Pya(3)26, Cha27,28,36, Aib31]-PYY(23-36) (peptide)
peptide: Ac-S[dP]R[3Pal][Cha][Cha]NL[Aib]TRQR[Cha]-NH2
SMILES: CC(=O)N[C@@H](CO)C(=O)N1CCC[C@@H]1C(=O)N[C@@H](CCCNC(=N)N)C(=O)N[C@@H](Cc1cccnc1)C(=O)N[C@@H](CC1CCCCC1)C(=O)N[C@@H](CC1CCCCC1)C(=O)N[C@@H](CC(N)=O)C(=O)N[C@@H](CC(C)C)C(=O)NC(C)(C)C(=O)N[C@H](C(=O)N[C@@H](CCCNC(=N)N)C(=O)N[C@@H](CCC(N)=O)C(=O)N[C@@H](CCCNC(=N)N)C(=O)N[C@@H](CC1CCCCC1)C(N)=O)[C@@H](C)O
B14: Ac-[MeSer23, D-Pro24, Cha27,28,36, Aib31]-PYY(22-36) (peptide)
peptide: Ac-A[NMeS][dP]RH[Cha][Cha]NL[Aib]TRQR[Cha]-NH2
SMILES: CC(=O)N[C@@H](C)C(=O)N(C)[C@@H](CO)C(=O)N1CCC[C@@H]1C(=O)N[C@@H](CCCNC(=N)N)C(=O)N[C@@H](Cc1c[nH]cn1)C(=O)N[C@@H](CC1CCCCC1)C(=O)N[C@@H](CC1CCCCC1)C(=O)N[C@@H](CC(N)=O)C(=O)N[C@@H](CC(C)C)C(=O)NC(C)(C)C(=O)N[C@H](C(=O)N[C@@H](CCCNC(=N)N)C(=O)N[C@@H](CCC(N)=O)C(=O)N[C@@H](CCCNC(=N)N)C(=O)N[C@@H](CC1CCCCC1)C(N)=O)[C@@H](C)O

Target: human Y2 receptor (human) (UniProt P49146)
Sequence (P49146 whole entry): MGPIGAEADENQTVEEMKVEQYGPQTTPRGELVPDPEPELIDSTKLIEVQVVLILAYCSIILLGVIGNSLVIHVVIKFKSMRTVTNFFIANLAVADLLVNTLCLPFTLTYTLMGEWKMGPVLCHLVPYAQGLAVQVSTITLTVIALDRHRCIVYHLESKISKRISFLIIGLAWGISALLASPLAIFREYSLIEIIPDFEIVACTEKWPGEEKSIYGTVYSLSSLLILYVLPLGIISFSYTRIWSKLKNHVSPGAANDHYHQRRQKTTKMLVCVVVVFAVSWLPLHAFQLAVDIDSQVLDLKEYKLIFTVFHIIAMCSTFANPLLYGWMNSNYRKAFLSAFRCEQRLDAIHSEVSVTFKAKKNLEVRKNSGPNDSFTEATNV
Experiment: RBA: [125I]-PYY displacement, hY2R/CHO membranes

IC50 Ratio (vs PYY(3-36)) | Binder
0.6 | B1
17 | B2
2.8 | B3
11 | B4
3.5 | B5
9.9 | B6
4.6 | B7
4.2 | B8
5.5 | B9
1.7 | B10
20 | B11
12 | B12
3.3 | B13
12 | B14

Target: human Y2 receptor (human) (UniProt P49146)
Experiment: cell-based or functional assay

GBA EC50 Ratio (vs PYY(3-36)), [35S]GTPγS | Binder
0.72 | B1
10 | B2
1.3 | B3
5.4 | B4
6.1 | B5
5.8 | B6
1.3 | B7
2.2 | B8
1.7 | B9
1.3 | B10
2.6 | B11
2.2 | B12
1.2 | B13
7.8 | B14

From US20120172293A1 (Takeda / Millennium, published 2012)
